Measurements: publication PMC3879392, “Mutant LV^476-7AA of A-subunit of Enterococcus hirae V1-ATPase: High affinity of A3B3 complex to DF axis and low ATPase activity” (SpringerPlus, 2013)

Tested on: Nc1ncnc2c1ncn2[C@@H]1O[C@H](COP(=O)(O)OP(=O)(O)OP(=O)(O)O)[C@@H](O)[C@H]1O
Assay: purified protein
Conditions: 25 mM MES-Tris pH 6.5, 4 mM MgSO4, 10% glycerol, 25 C

For “E. hirae V1-ATPase (A3B3DF complex) (Enterococcus hirae ATCC 9790)”, the Km was 400 µM.
